Experimental data as given in US20120329994A1.

Assays:
[1] = molecular target: WNV E ectodomain (residues 1-404) of the New York 1999 strain, expressed in E. coli and refolded (West Nile virus, New York 1999 strain) (UniProt Q9Q6P4); test: SPR
[2] = molecular target: WNV DIII (residues 296-404) of the New York 1999 strain, expressed in E. coli and refolded (West Nile virus, New York 1999 strain) (UniProt Q9Q6P4); test: SPR

| Substance | Kd [1] | Kd [2] |
| --- | --- | --- |
| mHu-E16 (humanized E16 monoclonal antibody produced in CHO cells) | 45 nM | 32 nM |
| pHu-E16 (plant-produced humanized E16 monoclonal antibody, made in N. benthamiana) | 46 nM | 41 nM |
